In PMC12218921, “An adaptive peptide-binding site in ubiquitin receptor hRpn13 revealed by structural studies” (Nature Communications, 2025):

Test system: hRpn13 Pru
Experiment: 1H-15N HSQC NMR of 15N-labeled hRpn13 Pru (1–150)
Type: binding, human
Settings: 0.1 mM 15N-labeled protein, 600 MHz, 25 °C, pH 6.5

B1: hRpn13_ΔMTT: hRpn13 Pru variant with ENT M1 – T3, ^aG, and ^bP deleted (protein)
chain: GSSGALFPSLVPGSRGASNKYLVEFRAGKMSLKGTTVTPDKRKGLVYIQQTDDSLIHFCWKDRTSGNVEDDLIIFPDDCEFKRVPQCPSGRVYVLKFKAGSKRLFFWMQEPKTDQDEEHCRKVNEYLNNPPMPGALGASGSSGHELSAL
modifications: left off: GST, N-terminal, cleaved
notes: hRpn13 Pru variant with ENT M1 – T3, ^aG, and ^bP deleted
HSQC differences of hRpn13_ΔMTT versus hRpn13 (1–150): changes for a subset of amino acids in the Pru helix and proteasome-binding surface
